Measurements reported in the supplement of paper PMC12042874.
± gives the uncertainty stated by the source.

Experiment: amyloid nucleation score (Sup35N fusion, yeast selection) (log enrichment); library NNK3; higher = more nucleation; inactive = no reads after selection
Summary of the method: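 After 24 hours of induction with 100 μM copper sulfate, psi-negative yeast expressing peptides of 20 random codons fused to Sup35N were grown for 7 days at 30°C on medium lacking adenine and uracil. Input and output plasmid inserts were sequenced with Illumina, and sequences with under 100 input reads were discarded. Scores for nucleation are the DiMSum log enrichment of output over input reads, centred on the mode score of non-aggregating sequences.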

| Substance | amyloid nucleation score |
| --- | --- |
| LMHGPMLVFRFVASNSCRER | inactive |
| CWDEIHIMKAHIRSYGGSVS | inactive |
| TMLVFGIVNTLVVDNLRSSI | 2.01 ± 0.094 |
| SIRDYSFIASSC | inactive |
| VGTGICKRPGYRAGSV | inactive |
| SLSIASVWWDPGTHVFLALW | inactive |
| QSYVRQF | inactive |
| VSNDLWATVYHWGL | inactive |
| GLFRGYGVTLVRRLWSRIMY | inactive |
| WSDIIVGIRTNCDVLFSGAY | inactive |
| CLSRSCSFFYKATYLRSEMM | inactive |
| IWENNSIML | inactive |
| YDKVLRPMVSYYSR | inactive |
| RVVCAD | inactive |
| YVIICYST | -0.539 ± 1 |
| GLHLIFFSYHRWHVTLK | inactive |
| CSLRLVAFSACGV | inactive |
| YCTWAYRVYSYSGCTMMIVL | inactive |
| DVVSLGIMQKGSWSGCML | inactive |
| VFPGTAVNHMESVHGWLVNY | inactive |
| YCHILTLATVMKPTFERAPS | inactive |
| YISEWSLSP | 0.909 ± 0.13 |
| VPEWG | inactive |
| DTPMESGTGATHLVRIVHSA | inactive |

| Substance | amyloid nucleation score |
| --- | --- |
| NCMYSLSMQREPFYPSRGVD | inactive |
| RARLHSVAINDVHSFTVSLG | 0.004 ± 0.39 |
| YCAYLLRSLWLGTAWEWWRQ | inactive |
| GIIHDVMDTTNGKIVSS | inactive |
| DWSYEKWLACSGFYGRRRL | inactive |
| ASTSD | inactive |
| SKHYN | inactive |
| WPGLRCDSGQDKRNMF | -0.039 ± 1 |
| FNSDKMAPLTGLCEVVRFGR | inactive |
| TIATLRF | inactive |
| KDIYYTSFILPDEWITG | inactive |
| ASAEEGWQNCEK | inactive |
| RSRKLCNPIMILLQVFGNYG | 1.43 ± 0.07 |
| TYEVPGPPSQRSLSY | inactive |
| NFGVMLGVNTLSMSSRVVLG | 0.6 ± 0.26 |
| RLCSVGLAVYYMACSEYKMR | 0.103 ± 0.29 |
| HPSTSTYRQRLPNCY | inactive |
| ASENLAEVLIVT | inactive |
| SSECSMALIL | inactive |
| SGCLFAYSWSGCTLVRYDVF | -0.416 ± 0.45 |
| GLTTLCSVPKQYVKYFVVTH | inactive |
| LIACNVPVVEVRTSIGVKDI | inactive |
| LVDLGFMRRCSQSRLQDFCF | 0.832 ± 0.24 |
| QYCVIMWPCIYFRVTFSF | inactive |

| Substance | amyloid nucleation score |
| --- | --- |
| WCGVSLVL | inactive |
| VSIRTR | inactive |
| WRKTSVMFADSGIV | inactive |
| SNLFTGYGELFVPGS | inactive |
| VGKWGFQEGST | inactive |
| DPYSDVQDKDTSDAGYASRV | inactive |
| RDQSVCGLSRGVIRVVGSCG | inactive |
| KVTYFKSMMHYDNMQSSVRC | inactive |
| YTLMFNCRFALLFYYTFSYG | inactive |
| VSVCLKELHQ | inactive |
| SFGLF | inactive |
| LTAYGNVNCV | inactive |
| SSMLI | inactive |
| SKPACRRFTLNDQKRKVEWI | inactive |
| QARIWSSSVGAFSNCHSCRC | inactive |
| GFVMMFNR | inactive |
| KPWMVEAPFERA | inactive |
| VWNVQSFQ | inactive |
| HLRDMQRSQNLVG | inactive |
| PLRSTKSIIVLMDEMRLIAN | inactive |
| VFICSAVTNNSWCERLDFSA | 1.5 ± 0.14 |
| FHMFMTYTWYPVI | inactive |
| TFKPDQYRFVHEYSTMRVLM | inactive |
| VYRLEVDISTILEGWSG | inactive |

| Substance | amyloid nucleation score |
| --- | --- |
| YTVSS | inactive |
| GSICLRQGPSVMVLRMWLCD | inactive |
| SSVVGMSGLG | inactive |
| GLLANWYVQH | inactive |
| FWTVHLVT | inactive |
| YWVTLFRSARVWMITLNLFD | inactive |
| YCCAKL | inactive |
| LVFIWAKTHRHQLFVTEAEL | inactive |
| GICHTFDAGTVFFLFGSWFI | inactive |
| LASFEIRNREY | 0.519 ± 0.33 |
| LGPAVELGMT | inactive |
| KYHMFRWGLSC | inactive |
| QRAYVLVTLVFGA | inactive |
| RSDCNGSSKYLISDHFP | inactive |
| LRAICKSCGVASGYVAAPRA | -0.478 ± 0.52 |
| LHIHRFWQQPHTNAGRIPHP | inactive |
| ISDLWLFATCSLK | inactive |
| SNQLNAN | inactive |
| VKFSTRNFNKVQLHVFTTCM | inactive |
| LSKHS | inactive |
| FDRLNRDDVIFPSRDFNVSS | inactive |
| TCLVGHDKKIDFIV | inactive |
| FYNDWRVFRVGCSLGRDQSN | inactive |
| KPCSRVSWNVVQVV | inactive |

| Substance | amyloid nucleation score |
| --- | --- |
| FVCYNTFSSSACSLCNHLSH | 2.4 ± 0.053 |
| GCLYVW | inactive |
| LIVFWDGFMCT | inactive |
| AGGCFISARSIRNCAHMLSR | inactive |
| CRGTEAGHPHVGIDHRARMV | -0.957 ± 1.8 |
| FVMRYRVVYSDRCFELGWHA | -0.567 ± 0.76 |
| VGQLFTSSSSVVSSGCMIVD | inactive |
| QSNFLFLDFANVYSHKQWCL | 1.71 ± 0.066 |
| VIVSREKSITRSNVIEWWNL | 1.82 ± 0.11 |
| CMRLLTWIKPNWLLLVCLKT | inactive |
| WGILW | 0.482 ± 0.15 |
| NRRFITYFSFRSPEVYKMQY | inactive |
| FSHVV | inactive |
| IVVCRKEDSAQRFSFVRLSD | inactive |
| FLIVGFPGNKLGC | 0.848 ± 0.1 |
| PYLRT | inactive |
| VRLTLIRSLRARRDGEDSKM | inactive |
| RDRGKY | inactive |
| SLPRV | inactive |
| EVFVLNYNWNVCHWLFVADV | 1.83 ± 0.083 |
| IGFIIGDVFAA | inactive |
| NSCSVVMFPYH | inactive |
| TLTSYEKIPSMSLSG | inactive |
| VSTWGRDLVVTIAGR | inactive |

| Substance | amyloid nucleation score |
| --- | --- |
| AALAY | inactive |
| DAISVLCFLLKSFRWSTFRG | inactive |
| RLVSLSPNLLMYSNVLDYLK | inactive |
| LTIINRFEFRQKNINGTYRK | 2.73 ± 0.068 |
| ASQFRCDHCMPRLKGETMET | inactive |
| GCINKDDYKSDCWSFYKTE | inactive |
| LFVCRLMENLEGY | inactive |
| TNLLRTGNASSWMFKRGVEC | inactive |
| VMYCYWSLIMSDSCNFMCQY | 2.08 ± 0.058 |
| KGTYGFAINHHYIA | inactive |
| CYMYVRNGHLEIFLMGLSGF | inactive |
| VLHGVL | inactive |
| AFCLQYVCYAKLMGNVNNTC | 1.75 ± 0.084 |
| RLWLYR | inactive |
| PIQGAMTRNYRFRTGRGFCL | 0.882 ± 0.2 |
| KYDVGVYLYLLLPTNCRQQW | 1.46 ± 0.12 |
| CSFIGYHGFVCLSVDIVLGC | 1.51 ± 0.12 |
| KYSTSPNFKIIQVLMGLPLR | inactive |
| AVTYNGYDHYYRDVARHCLR | inactive |
| FSDVGLWFGAYRKVVVVKLF | inactive |
| KCRGGRETIRLRRSLWVFMV | inactive |
| FIGVKQTRKLNTFCLGSWLM | -0.061 ± 0.66 |
| AKATMPIT | inactive |
| PHSQDMVWQCCWGGATAEES | -0.047 ± 0.72 |

| Substance | amyloid nucleation score |
| --- | --- |
| WWSKRLKRLVNCGLR | inactive |
| HSLWRLGYYM | 0.912 ± 0.15 |
| HHLTFTGGWYPDWHSLFMGG | inactive |
| IVTNDVCVFSVQYSRFVVRL | 0.416 ± 0.23 |
| RIVNS | inactive |
| GGFCKWRKCGVYKMTGHCPE | inactive |
| VAVVIEYMKLVVLG | inactive |
| MFLFKVTDTE | 1.88 ± 0.098 |
| LKRCRLQMAGYELSWDQGTM | inactive |
| YAAEYYVVQVIG | inactive |
| FLDGFVQPISESINLLMFCT | inactive |
| YEIFSVSLR | -0.221 ± 0.9 |
| RLYDIVCYSTVVL | 1.99 ± 0.074 |
| NASLI | inactive |
| SMLSAIMGSS | inactive |
| VNYLYPS | inactive |
| CFRCFGKGCHILAYGVYC | inactive |
| KSTICACTLIMVNTPFMLSM | 1.36 ± 0.11 |
| YMSRKPV | inactive |
| SKLCVVTFLCIQTCQYDLCV | inactive |
| EAGSTLWCGWKRYASCGRAE | inactive |
